Laboratory results from article PMC6435357.
Read-outs that look alike come from different tables or passages of the source.

For Env (BG505.T332N): N197S and N197T, which other (N-glycosylation at N195) is on record?
The other was “decreases”.

For Env (LAI): N197S/T, which other (N-glycosylation at N197) is on record?
The other was “no change”.

With Env (LAI): D113N as the substance, how does the other (N-glycosylation at N113) read?
Its other is “no change”.
